Measurements from patent US20240343803A1 (SHANDONG SIMCERE BIOPHARMACEUTICAL, published 2024).

T1: full-length human TIGIT on CHO-K1 cells (CHO-K1 human TIGIT) (human, UniProt Q495A1 22-244)
T1 construct: NCBI XP_024309156.1; entry includes the signal peptide; also called high expression strain 1D2; medium expression strain 2D10
T1 sequence: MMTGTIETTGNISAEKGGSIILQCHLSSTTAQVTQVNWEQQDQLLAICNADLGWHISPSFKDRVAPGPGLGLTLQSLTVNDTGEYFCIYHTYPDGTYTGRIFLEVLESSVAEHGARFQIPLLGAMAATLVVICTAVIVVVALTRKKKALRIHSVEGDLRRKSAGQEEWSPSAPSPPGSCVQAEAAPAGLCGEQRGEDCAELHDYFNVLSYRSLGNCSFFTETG

T2: human TIGIT ECD-mFc (fusion protein of extracellular domain of human TIGIT and mouse IgG2a Fc fragment) (human)
T2 chain: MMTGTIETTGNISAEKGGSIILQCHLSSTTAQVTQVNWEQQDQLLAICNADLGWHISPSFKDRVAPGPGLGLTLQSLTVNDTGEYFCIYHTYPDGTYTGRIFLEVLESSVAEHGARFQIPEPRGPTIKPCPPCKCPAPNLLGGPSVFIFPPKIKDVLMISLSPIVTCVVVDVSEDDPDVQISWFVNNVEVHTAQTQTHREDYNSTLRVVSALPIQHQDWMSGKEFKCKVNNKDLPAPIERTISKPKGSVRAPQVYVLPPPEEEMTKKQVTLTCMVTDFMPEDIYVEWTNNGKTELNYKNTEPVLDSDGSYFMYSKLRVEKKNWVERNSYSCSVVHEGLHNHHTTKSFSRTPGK

T3: cynomolgus monkey PVRIG on FlpinCHO-cyno PVRIG cells (cynomolgus monkey, UniProt A0A2K5WVV8 41-322)
T3 construct: whole, on cells; also called FlpinCHO-cynomolgus monkey PVRIG
T3 sequence: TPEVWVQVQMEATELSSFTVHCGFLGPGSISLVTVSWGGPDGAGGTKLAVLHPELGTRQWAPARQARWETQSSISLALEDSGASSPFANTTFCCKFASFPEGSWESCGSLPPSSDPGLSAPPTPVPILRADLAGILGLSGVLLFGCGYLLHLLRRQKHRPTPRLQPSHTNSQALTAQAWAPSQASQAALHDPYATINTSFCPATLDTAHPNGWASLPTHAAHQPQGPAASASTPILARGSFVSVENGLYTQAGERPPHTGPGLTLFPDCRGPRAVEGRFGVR

T4: human PVRIG-his (AcroBiosystems, Cat NO. PVG-H52H4) (human, UniProt Q6DKI7 41-171, limits assumed)
T4 construct: treated as the same protein; also called human PVRIG-His protein; Human PVRIG-His, Acro C227P1-9ARF1-T4
T4 sequence (looked up): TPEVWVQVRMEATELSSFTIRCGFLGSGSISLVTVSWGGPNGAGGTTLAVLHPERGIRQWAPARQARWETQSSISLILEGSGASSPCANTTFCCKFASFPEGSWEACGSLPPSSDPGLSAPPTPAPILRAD

B1: RG6058-hIgG1 (antibody, V domains shown)
VH: EVQLQQSGPGLVKPSQTLSLTCAISGDSVSSNSAAWNWIRQSPSRGLEWLGKTYYRFKWYSDYAVSVKGRITINPDTSKNQFSLQLNSVTPEDTAVFYCTRESTTYDLLAGPFDYWGQGTLVTVSS
VL: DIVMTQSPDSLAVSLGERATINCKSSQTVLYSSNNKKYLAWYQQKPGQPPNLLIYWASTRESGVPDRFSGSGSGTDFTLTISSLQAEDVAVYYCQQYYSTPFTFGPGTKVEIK
notes: human IgG1 format by its name; also called Roche RG6058; control antibody RG6058
B2: SRF813-hIgG1 (antibody, V domains shown)
VH: QVQLVQSGAEVKKPGSSVKVSCKASGGTFSSAAISWVRQAPGQGLEWMGNIIPIVGIANYAQKFQGRVTITADESTSTAYMELSSLRSEDTAVYYCARDTGRGYTRHFWFDPWGQGTLVTVSS
VL: DIQMTQSPSSLSASVGDRVTITCRASQSISSYLNWYQQKPGKAPKLLIYAASSLQSGVPSRFSGSGSGTDFTLTISSLQPEDFATYYCQQSDILYTFGGGTKVEIK
notes: human IgG1 format by its name
B3: PVRIG-A105 (VHH)
VHH: EVQLVESGGGLVQAGGSLRLSCAASGRTFDRHTMTWFRQAPGKEREFVATASRIPGDTYYSHSVKGRFTISRDNAKNTVYLQLNNLKPEDTAVYYCAATSAYCSEVDCYEKGSWYDNWGQGIQVTVSS
notes: tested as VHH-hinge-CH2-CH3 (human IgG1-Fc); not shown: human IgG1 hinge-CH2-CH3

What was measured:
[1] = biological target: T1, full-length human TIGIT on CHO-K1 cells …; assay: FACS, low expression strain
Protocol: (§1) The collected cells were washed once with PBS (Hyclone, CAT #SH30256), resuspended to 2×10⁵/50 μL with 1% BSA-PBS. The antibodies were diluted to 80 nM with 1% BSA-PBS (diluted by 3-fold serial dilution for 12 concentration points). The 50 μL cells were then mixed with 50 μL diluted antibodies, and then incubated at 4° C. for 60 minutes. […] After washing twice with PBS, the cell samples were resuspended with 1% BSA-PBS, 100 μL/well and then analyzed by flow cytometry (BD, Canto II). […] [0298] (c) The effect of anti-TIGIT chimeric antibodies blocking the interaction between Bio-CD155-His and CHO-K1 human TIGIT high expression cell strains detected by FACS

[2] = biological target: T1, full-length human TIGIT on CHO-K1 cells …; assay: FACS, high expression strain
Protocol: as §1

[3] = biological target: T1, full-length human TIGIT on CHO-K1 cells …; assay: FACS, CHO-K1 human TIGIT medium expression strain
Protocol: The collected cells were washed once with PBS (Hyclone, Cat NO. SH30256), resuspended to 2×10⁵/50 μL with 1% BSA-PBS. The antibodies were diluted to 80 nM with 1% BSA-PBS (diluted by 3-fold serial dilution for 12 concentration points). The 50 μL cells were then mixed with 50 μL diluted antibodies, and then incubated at 4° C. for 60 minutes. […] After washing twice with PBS, the cell samples were resuspended with 1% BSA-PBS, 100 μL/well and then analyzed by flow cytometry (BD, Canto II).

[4] = biological target: T2, human TIGIT ECD-mFc (fusion protein of …); assay: FACS, competition: hTIGIT ECD-mFc to CHO-K1 CD155
Protocol: The collected CHO-K1 CD155 cells were washed once with PBS (Hyclone, CAT #SH30256) and resuspended to 2×10⁵/40 μL with 1% BSA-PBS. The tested antibodies were diluted to 600 nM with 1% BSA-PBS (diluted by 2.5-fold serial dilution for 12 concentration points). The TIGIT ECD-mFc was diluted with 1% BSA-PBS to 6 μg/mL. The 40 μL cells were then mixed with 40 μL diluted antibodies and 40 μL diluted TIGIT ECD-mFc, and then incubated at 4° C. for 60 minutes. […] The cell samples were washed twice with PBS, resuspended to 100 μL/well with 1% BSA-PBS and then analyzed by flow cytometry (BD, Canto II).

[5] = biological target: T3, cynomolgus monkey PVRIG on …; assay: FACS, FlpinCHO-cyno PVRIG cells
[6] = biological target: T4, human PVRIG-his (AcroBiosystems, Cat …); assay: competition ELISA on coated human PVRIG-his; blocked ligand human PVRL2-mFc
In short: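 Wells were coated with 0.5 μg/mL human PVRIG-his. Bound ligand was read by HRP/TMB absorbance, and IC50 came from a four-parameter logistic fit of OD against antibody concentration.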

Row | Binder | EC50 [1] | EC50 [2] | EC50 (read off the curve) [3] | IC50 [4] | EC50 (read off the curve) [5] | IC50 (read off the curve) [6]
1 | B1 | 0.495 nM | 0.673 nM | ~0.4 nM | 0.566 nM | – | –
2 | B2 | – | – | – | – | 1 to 1.4 nM | ~0.8 nM
3 | B3 | – | – | – | – | – | ~0.9 nM
